According to patent US20210040232A1:

Legend:
[1] = biological target: human CTLA-4 (amino acids M1-N223) on stably transfected VI-fibroblast cells (human) (UniProt P16410); test: ECL cell binding, VI-fibroblast/hCTLA-4 cells
[2] = biological target: mf CTLA-4 extracellular domain (aa 1-161) fused to the trans-membrane and cytoplasmic domain of hCD300a (aa 181-299), on Jurkat/NFAT-Luc cells (Macaca fascicularis; human) (UniProt G7PL88); test: cell-based or functional assay
[3] = biological target: hCTLA-4 extracellular domain (aa 1-161) fused to the trans-membrane and cytoplasmic domain of hCD300a (aa 181-299), on Jurkat/NFAT-Luc cells (human) (UniProt Q9UGN4); test: cell-based or functional assay
hCTLA-4 extracellular domain (aa 1-161) fused to the trans-membrane and cytoplasmic domain of hCD300a (aa 181-299), on Jurkat/NFAT-Luc cells (human), sequence (Q9UGN4 other isoform, or with tags, fused parts or gaps limits assumed, form in doubt): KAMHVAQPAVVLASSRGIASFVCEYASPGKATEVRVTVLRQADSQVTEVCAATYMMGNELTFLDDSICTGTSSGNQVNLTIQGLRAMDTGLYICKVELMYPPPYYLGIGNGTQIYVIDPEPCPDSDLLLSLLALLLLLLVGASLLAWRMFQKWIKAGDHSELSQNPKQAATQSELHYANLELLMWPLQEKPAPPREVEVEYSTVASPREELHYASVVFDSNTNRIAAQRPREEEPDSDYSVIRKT

human CTLA-4 (amino acids M1-N223) on stably transfected VI-fibroblast cells (human), sequence (P16410 36-223 limits assumed): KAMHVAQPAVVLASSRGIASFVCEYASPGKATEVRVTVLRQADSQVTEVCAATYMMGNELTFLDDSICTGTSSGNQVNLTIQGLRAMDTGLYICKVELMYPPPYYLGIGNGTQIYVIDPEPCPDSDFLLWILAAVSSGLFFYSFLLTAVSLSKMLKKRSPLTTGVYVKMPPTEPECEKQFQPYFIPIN
mf CTLA-4 extracellular domain (aa 1-161) fused to the trans-membrane and cytoplasmic domain of hCD300a (aa 181-299), on Jurkat/NFAT-Luc cells (Macaca fascicularis; human), sequence (Q9UGN4 other isoform, or with tags, fused parts or gaps, form in doubt): as the sequence (Q9UGN4 other isoform, or with tags, fused parts or gaps limits assumed, form in doubt) above, with S14N, L106M counted along it

| ratio of RLU signal to parental VI-fibroblast at 0.6 nM Ab [1] | Fold induction of IL-2 at 100 nM, APC HEK293/hCD20/hCD86 (isotype control) [2] [fold] | Fold induction of IL-2 at 100 nM, APC HEK293/hCD20/hCD80 (isotype control) [3] [fold] | ratio of RLU signal to parental VI-fibroblast at 0.4 nM Ab [1] | Substance |
| --- | --- | --- | --- | --- |
| 1 |  |  |  | mIgG2 Isotype Control (antibody) |
|  | 1 | 1 |  | hIgG2 Isotype (antibody) |
|  | 1.1 | 0.8 | 1 | hIgG1 Isotype Control (antibody) |
